Assay results from the RNAGym collection of RNA variant scans (doi:10.1073/pnas.2313332121).

B1: TPR t1 (parent)
chain: GACCAAUCUGCCCUCAGAGCUCGAGAACAUCUUCGGAUGCAGAGGAGGCAGGCUUCGGUGGCGCGAUAGCGCCAACGUCCUCAACCUCCAAUGCAUCCCACCACAUGAUGAUGCCUGAAGAGCCUUGGUUUUUUG

Variants of: B1
Experiment: polymerase ribozyme fitness, log enrichment relative to wild type (log ratio); higher = more active; in vitro selection for triplet polymerase activity
Method in brief: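 A single round of triplicate in vitro selection, including frozen incubation at −7 °C, was applied to PCR-built, transcribed mutant libraries of each subunit of a heterodimeric triplet polymerase ribozyme. Illumina sequencing of input and output libraries retained genotypes with ≥10 input reads and ≥1 read per output. Fitness is the base-2 logarithm of genotype enrichment divided by wild-type enrichment, from inverse-variance-weighted replicate averages.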

| Variant | polymerase ribozyme fitness (log ratio) |
| --- | --- |
| GACCAAUCUGCCCUCAGUGCUCGAGAACAUCUUCGGAUGCAAAGGAGGCAGGCUUCGGUGGCGCGAUAGCGCCAACGUCCUCAACCUCCAAUGCAUCCCACCACAUGAUGAUGCCUGAAGAGCCUUGGUUUUUUG [A18U G42A] | -2.11 |
| GACCAAUCUGCCCUCAGUGCUCGAGAACAUCUUCGGAUGCAGAGGAGGCAGGCUUCGGUAGCGCGAUAGCGUCAACGUCCUCAACCUCCAAUGCAUCCCACCACAUGAUGAUGCCUGAAGAACCUUGGUGUUUUG [A18U G60A C72U G122A U130G] | -3.74 |
| GACCAAUCUGCCCUCAGUGCUCGAGAACAUCUUCGGAUGCAGAGGAGGCAGGCUUCGGUUGCGCGAUAGCGCCAACGUCCUCAACCUCCAAGGCAUCCCACCACAUGAUGAUGCCUGAAGAGCCUUGGUUUUUUG [A18U G60U U92G] | -3.05 |
| GACCAAUCUGCCCUCAGUGCUCGAGAACAUCUUCGGAUGCAGAGGAGUCAGGCUUCGGUGGCGUGAUAGCGCCAACGUCCUCAACCUUCAAUGCAUCCCACCACAUGAUGAUGCCUGAAGAGCCUUGGUUUUUUG [A18U G48U C64U C88U] | -2.9 |
| GACCAAUCUGCCCUCAGUGCUCGAGAACAUCUUCGGAUGCAGAAGAGGCAGGCAUCGGAGGCGCGAUAGCGCCAACGUCCUCAACUUCCAAUGCAUCCCACCACAAGAUGAUGCCUGAAGAGCCUUGGUUUUUUG [A18U G44A U54A U59A C86U U106A] | -4.83 |
| GACCAAUCUGCCCUCAGUGCUCGAGAACAUCUUCGGAUUCAGAGGAGGCAGGCUUCGGUGGCGCGAUAGCGCCAACGUCCUCAACCUCCAAUGCAUCCCACCAUAUGAUGAAGCCUGAAGAGCCUUGGUUUUUUG [A18U G39U C104U U112A] | -1.88 |
| GACCAAUCUGCCCUCAGUGCUCGAGAACAUCUUCGGAUGCAGAGGAGGCAGGCUUCGGUGGCGCGAUAGCGCCAACGUCCUCAACCUCCAAUGCAUCCCACCACAUGAUGAUGCCUGAAGAGCAUUGGUUUUUUG [A18U C124A] | -0.753 |
| GACCAAUCUGCCCUCAGUGCUCGAGAACAUCUUCGGAUGCAGACGAGGCAGGCUUCGGUGGCGCGAUAUCGCCAACGUCCUCAACCUCCAAUGCAUCCCACCACAUGAUGAUGCCUGAAGAGCCUUGGUUUUUUG [A18U G44C G69U] | -0.776 |
| GACCAAUCUGCCCUCAGUGCUCGAAAACAUCUUGGGAUGCAGAGGAGGCAGGUUUCGGUGACGCGAUAGCGCCAACGUCCUCAACCUCCAAUGCAUCCCUCCACAUGAUGAUGCCUGAAGAGCCUUGGUUUUUUG [A18U G25A C34G C53U G61A A100U] | -8.02 |
| GACCAAUCUGCCCUCAGUGCUCGAGAACAUCUUCGGAUGCAGAGGAGAAAGGCUUCGGUGGCGCGAUAGCGCCAACGUCCUCAAGCUCCAAUGCAUCCCACCACAUGAUGAUGCCUGAAGAGCCUUGGUUUUAUG [A18U G48A C49A C85G U133A] | -3.22 |
| GACCAAUCUGCCCUCAGUGCUCGAGAACAUCUUCGGAUGCAUAGGAGGCAGGCUUCGGUGGCGCGAUAGCGCCGACGUCCUCAACCUCCAAUGCAUCCCACCACAUGAUGAUGCCUGAAGAGCCUUGGUUUUUUG [A18U G42U A74G] | -1.91 |
| GACCAAUCUGCCCUCAGUGCUCGAGAACAUCUUCGGAUGCAGAGGAGGCAGGCUUCGAUGGCGCGAUAGCGCCAACGUCCUCAACCUCCAAUGCAUCCCACCACAUGAUGAAGCCUGAAGAUCCUUGGUUUUUUG [A18U G58A U112A G122U] | -2.54 |
| GACCAAUCUGCCCUCAGUGCUCGAGAACAUCUUCGGAUGCAGAGGAGGCAGGCUUCGGUGGCGCGAUAACGCCAACGUCCUCAACCUCCAAUGCAUCCCACCACAUGAUGAUGCCUGAAGAGCCUUGGUUUUUUG [A18U G69A] | -5.06 |
| GACCAAUCUGCCCUCAGUGCUCGAGAACAUCUUCGUAUGCAGAGGAGUCAGGCUUCGGUGGCGCGAUAUCGCCAACGUCCUCAACCUCCAAUGCAUCCCACCACAUGAUGAUGCCUGAAUAUCCUUGGUUUUUUG [A18U G36U G48U G69U G120U G122U] | -1.69 |
| GACCAAUCUGCCCUCAGUGCUCGAGAACAUCUUCGGAUGCAGAGGAGGCAGGCUUCGGUGACGCGAUAGUGCCAACGUCCUCAACCUCCAAUGCAUCCCACCACAUGAUGAUGCAUGAAGAGCCUUGGUUUUUUG [A18U G61A C70U C115A] | -5.05 |
| GACCAAUCUGCCCUCAGUGCUCGAGAACAUCUUCGGAUGCAGAGGAGGCAGGCUUCUGUGGCGCGAUAGCGCCAACGUCCUCAACCUUCAAUGCAUCCCAGCACAUGAUGAUGCCUGAAGAGCCUUGGUUUUUUG [A18U G57U C88U C101G] | -6.08 |
| GACCAAUCUGCCCUCAGUGCUCGAGAACAUCUUCGGAUGCAGAGGAGGCAGGCUUCGGUGGCUCGAUAGCGCCAACGUCCUCAACCUCCAAUGCAUCCCACCACAUGAUGAUGCCUGAAGAGCCUUGGUUUUUUG [A18U G63U] | -4.1 |
| GACCAAUCUGCCCUCAGUGCUCGAGAACAUCUUCGGAUGCAGAGGAGGCAGGCUUCGGUGGCACGAUAGCGCCAACGUCCUCAACCUCCAAUGCAUCCCACCACAUGAUGAUGCCUGAAGAGCCUUGGUUUUUUG [A18U G63A] | -3.69 |
| GACCAAUCUGCCCUCAGUGCUCGAGAACAUCUUCGGAUGCAGAGGAUGCAGACUUCGGUGGCGCGAUAGCGCCAACGUCCUCAACCUCCAAUGCAUCCCACCACAUGAUGAUGCCUGAAGAGCCUUGGUUUUUUG [A18U G47U G52A] | -5.39 |
| GACCAAUCUGCCCUCAGUGCUCGAGAACAUCUUCGGAUGCAGAUGAGGCAGGCUUCGGUGGCGCGAUAGCGCCAACGUCCUCAACCUCCAAUGCAUCCCACCACAUGAUAAUGCCUGAAGAGCCUUGGUUUUUUG [A18U G44U G110A] | -5.32 |
| GACCAAUCUGCCCUCAGUGCUCGAGAACAUCUUCGGAUGCAGAGGAGGCAGUCUUCGGUGACGCGAUAGCGCCAACGUCCUCAACCUCCAAUGCAUCCCACCACAUGAUGAUGCCUGAAGAGCCUUGGUUUUUUG [A18U G52U G61A] | -2.78 |
